According to patent US20080260858A1, “Universal Procoagulant” (The Board of Trustees of the University of Illnois, priority 2005, published 2008):

Columns and labels:
X activation by VIIa = molecular target: T1, X activation by VIIa (Homo sapiens, UniProt P08709); assay: Factor X activation using liposomes; format: biochemical; details: 500 pM VIIa, 4 pM TF, 50 μM total lipid; liposomes
T1 construct: VIIa or factor VIIa means coagulation factor VIIa (active enzyme); purchased American Diagnostica
Experimental: A stringent test of TF:VIIa function is its ability to support the activation of its natural protein substrate, X. This requires that TF be incorporated into a suitable phospholipid membrane (i.e., one containing negatively charged phospholipids). […] The ability of various forms of TF to support the activation of X was compared under equivalent concentrations of enzyme (500 pM VIIa), cofactor (4 pM TF) and liposomes (50 μM total lipid).
Factor X activation using liposomes. […] At varying times, 20 μl aliquots were removed into a 96-well plate containing 100 μl Stop Buffer 1 (40 mM Mes-NaOH pH 5.8, 12 mM EDTA, 50 mM NaCl, 0.25% Triton X-100, 0.1% NaN3, 0.012% Antifoam C) at 4° C. After warming the stopped reactions to room temperature, Xa was detected by adding 60 μl of 1.5 mM Spectrozyme Xa in HBSAC plus 0.6 M Tricine-NaOH, pH 8.4 and quantifying change in A405. Amounts of Xa generated were determined by comparison to a standard curve with purified Xa.

VIIa = molecular target: T2, VIIa (Homo sapiens, UniProt P08709); assay: Kd for VIIa binding to TF (X activation rate as readout); details: purified proteins; membTF in PCPS liposomes; sTF-5AA-(His)6 plus NiPCPS liposomes; read-out: VIIa binding Kd
T2 construct: VIIa or factor VIIa means coagulation factor VIIa (active enzyme); purchased American Diagnostica
T2 sequence (P08709 61-212): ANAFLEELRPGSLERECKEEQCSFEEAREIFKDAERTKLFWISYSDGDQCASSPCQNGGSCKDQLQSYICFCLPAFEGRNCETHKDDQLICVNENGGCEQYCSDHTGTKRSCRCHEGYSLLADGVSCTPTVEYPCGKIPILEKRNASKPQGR
T2 sequence (P08709 213-466): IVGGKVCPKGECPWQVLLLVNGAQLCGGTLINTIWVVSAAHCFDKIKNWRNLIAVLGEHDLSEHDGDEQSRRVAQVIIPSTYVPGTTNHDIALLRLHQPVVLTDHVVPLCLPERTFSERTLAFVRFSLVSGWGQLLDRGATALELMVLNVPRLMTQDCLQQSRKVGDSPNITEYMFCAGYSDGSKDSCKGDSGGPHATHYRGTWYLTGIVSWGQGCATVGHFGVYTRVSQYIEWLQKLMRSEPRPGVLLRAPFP
Experimental: When VIIa binds to TF, its rate of X activation increases dramatically, so this can be used as a convenient readout for TF:VIIa complex formation. […] Therefore, when the isolated TF ectodomain was attached to the membrane surface via interaction with metal-chelating lipids, its VIIa binding ability was indistinguishable from membTF that spanned the lipid bilayer.
Measurement of the Kd for VIIa binding to TF—The binding affinity of VIIa for various forms of TF was measured using the TF-dependent increase in the rate of X activation as the readout for TF:VIIa complex formation. Activation of X by the TF:VIIa complex was measured by adapting the continuous chromogenic assay of Fiore et al.. Reaction mixtures containing Vila and either rTF/PCPS or sTF+SUVs were prepared in HBSAC. Reactions were initiated by adding a mixture of X and the chromogenic substrate, S-2222, in a flat bottom, 96-well plate. Change in A405 was monitored at ambient temperature in a VERSAmax microplate reader (Molecular Devices), sampling every 15 sec for 20 min. Initial rates of X activation were determined by fitting a second-order polynomial to the A405 data as described. The quadratic ligand binding equation was fit to the rate data as described to derive apparent Kd values for the binding of VIIa to TF. For experiments using relipidated rTF, typical reaction mixtures containing 0.25 μM VIIa and 20 nM X in HBSAC were incubated with increasing concentrations of rTF/PCPS.

VII = molecular target: T3, VII (Homo sapiens, UniProt P08709); assay: Factor VII autoactivation; format: biochemical; details: 15 nM VII and TF; 37° C.; liposomes
T3 construct: Purified plasma-derived VII, X and factor Xa (Xa) were from Enzyme Research Laboratories; purchased Enzyme Research Laboratories; host or cells: plasma
Experimental: An additional function of TF is to promote the autoactivation of VII in a reaction that is dependent on TF surface density.
Factor VII autoactivation. Rates of VII autoactivation were measured essentially as described. Equimolar concentrations of VII and TF (15 nM each) were incubated in HBSAC at 37° C. […] A 20 μl aliquot of 5 mM Chromozym t-PA substrate was added and the change in A405 was monitored at ambient temperature. Two-dimensional second-order rate constants (k2D) were determined as described.

T3 sequence (P08709 61-466, one chain of several): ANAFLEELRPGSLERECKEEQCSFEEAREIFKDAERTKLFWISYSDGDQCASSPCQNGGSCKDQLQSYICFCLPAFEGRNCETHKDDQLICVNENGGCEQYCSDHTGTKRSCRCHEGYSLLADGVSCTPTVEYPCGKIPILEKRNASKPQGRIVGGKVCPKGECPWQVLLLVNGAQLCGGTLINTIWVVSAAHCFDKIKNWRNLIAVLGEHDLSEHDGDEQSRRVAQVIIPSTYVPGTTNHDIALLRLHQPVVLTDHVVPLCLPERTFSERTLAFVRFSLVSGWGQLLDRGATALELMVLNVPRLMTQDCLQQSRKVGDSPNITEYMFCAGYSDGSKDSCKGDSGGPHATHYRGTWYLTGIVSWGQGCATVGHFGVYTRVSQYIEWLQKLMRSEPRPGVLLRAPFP

B1: membTF: recombinant membrane-bound tissue factor (protein, UniProt P13726 1-295, looked up)
chain: METPAWPRVPRPETAVARTLLLGWVFAQVAGASGTTNTVAAYNLTWKSTNFKTILEWEPKPVNQVYTVQISTKSGDWKSKCFYTTDTECDLTDEIVKDVKQTYLARVFSYPAGNVESTGSAGEPLYENSPEFTPYLETNLGQPTIQSFEQVGTKVNVTVEDERTLVRRNNTFLSLRDVFGKDLIYTLYYWKSSSSGKKTAKTNTNEFLIDVDKGENYCFSVQAVIPSRTVNRKSTDSPVECMGQEKGEFREIFYIIGAVVFVVIILVIILAISLHKCRKAGVGQSWKENSPLNVS
modifications: full-length
X activation by VIIa
  Km: 0.059 ± 0.00088 µM
  X activation kcat: 3.5 ± 0.38 s⁻¹
VIIa
  Kd: 0.01 nM
VII
  VII autoactivation k2D: 3.4 (±0.15) × 10^7 m^2 mol^−1 s^−1
